Source: patent US12472227B2, “Pharmaceutical compositions and use thereof for relieving resistance due to cancer chemotherapy and enhancing effect of cancer chemotherapy” (Rise Biopharmaceuticals Inc., priority 2015, dated 2025)
Entries after “also recorded” stand apart in the source; their conditions may differ. Where two headings read alike, the source gives them in different places.

Experiments:
MIAPaCa2GR cells = assay: MTT cytotoxicity of Gemcitabine, Gemcitabine-resistant MIAPaCa2GR; format: cell-based; conditions: Homo sapiens
Method: (§1) Human pancreatic cancer (PDAC) cell lines, BxPC3 and MIAPaCa2 were used in the present invention. Gemcitabine resistant BxPC3 cell line (BxPC3GR) was generated as a chemoresistant cell line against gemcitabine by culturing BxPC3 cells in media containing increasing concentrations of gemcitabine and then maintained them at 0.5 μM gemcitabine. Gemcitabine resistant MIAPaCa2 cell line (MIAPaCa2GR) was generated by culturing MIAPaCa2 cells in media containing increasing concentrations of gemcitabine and then maintained them at 0.12 μM gemcitabine. […] MIAPaCa2 and MIAPaCa2GR are maintained in DMEM with 10% FBS, 1% penicillin-streptomycin, and 1% L-Glutamine.
To validate the establishment of Gemcitabine-resistant pancreatic ductal adenocarcinoma (PDAC) cell lines, MTT of Gemcitabine gradient was implemented with parental cells and Gemcitabine-resistant (GR) cells. […]

BxPC-3GR [1] = assay: Cell proliferation assay (CCK-8), BxPC-3GR; format: cell-based, Human; conditions: Gemcitabine 100 nM, ONCO P-8 400 ng/mL (47 nM), IL-8 200 ng/mL, 24 hours
Method: The Gemcitabine-resistant cancer cells treated by Gemcitabine (100 nM) with ONCO P-8 (400 ng/mL, 47 nM), or treated by Gemcitabine with ONCO P-8 and IL-8 (200 ng/mL, 23.8 nM) for 24 hours.

BxPC-3 cells = assay: MTT cytotoxicity of Gemcitabine, parental BxPC-3; format: cell-based; conditions: Homo sapiens, BxPC-3 parental cells
Method: as §1
(§2) To validate the establishment of Gemcitabine-resistant pancreatic ductal adenocarcinoma (PDAC) cell lines, MTT of Gemcitabine gradient was implemented with parental cells and Gemcitabine-resistant (GR) cells.
(§3) BxPC-3 and BxPC-3GR treated with gemcitabine from 0 nM to 100 nM, and measured by MTT (FIG. 3a). Similarly, MIAPaCa2 and MIAPaCa2GR also treated with gemcitabine from 0 nM to 100 nM, and measured by MTT (FIG. 3b).

MIAPaCa2 cells = assay: MTT cytotoxicity of Gemcitabine, parental MIAPaCa2; format: cell-based; conditions: Homo sapiens, MIA PaCa-2
Method: as §1, §2, §3

BxPC-3GR cells = assay: MTT cytotoxicity of Gemcitabine, Gemcitabine-resistant BxPC-3GR; format: cell-based; conditions: Homo sapiens
Method: as §1, §2, §3

[2] = test system: gemcitabine-resistant cell (BxPC-3GR); assay: Migration of Gemcitabine-resistant cancer cells; format: cell-based, Human; conditions: ONCO P-8 400 ng/ml, IL-8 200 ng/ml
Method: (§4) The drug concentration: ONCO P-8 (400 ng/ml), Reparixin (200 nM), IL-8 (200 ng/ml), statistical significance: *P<0.05, **P<0.01,***P<0.001.

BxPC-3GR [3] = assay: Transwell invasion assay, BxPC-3GR; format: cell-based, Human; conditions: Gemcitabine 100 nM; for invasion rate: ONCO P-8 400 ng/mL or IL-8 200 ng/mL, versus control
Method: (§5) The invasion ability of cell was performed by using 8 μm pore size transwell (Corning Fluor® Blok™). The transwell insert was coated with 60 μl matrigel (300 μg/ml in serum-free medium, BD Bioscience) overnight at 37° C. in 5% CO2 atmosphere. 2.5×10^4 cells in 0.2 mL of serum-free growth medium were seeded into the upper chamber coated with matrigel and then treated with IL-8 (200 ng/ml) with/without ONCO P-8 (400 ng/ml). After incubation for 24 hrs at 37° C. in 5% CO2, membrane of upper chamber was fixed with methanol and stained with propidium iodide (PI). The invasive cells in the bottom of membrane were imaged and counted by using an inverted fluorescence microscope (Observer.Z1, Zeiss) in five random fields of each specimen (magnification, ×100).
(§6) The Gemcitabine-resistant cancer cells treated by Gemcitabine (100 nM) with ONCO P-8 (400 ng/mL), or treated by Gemcitabine with ONCO P-8 and IL-8 (200 ng/mL), or treated by Gemcitabine with IL-8 respectively for invasion ability assay.
as §4

BxPC-3 cell line = assay: Transwell matrigel invasion assay, BxPC-3; format: cell-based, Human; conditions: 24 hrs; for invasive rate: ONCO P-8 400 ng/ml or IL-8 200 ng/ml alone
Method: as §5

CXCR2 = target: T1, CXCR2 (Homo sapiens, UniProt P25025); assay: Indirect ELISA binding assay, CXCR2 complex formation; conditions: versus IL-8
T1 sequence (P25025 1-360): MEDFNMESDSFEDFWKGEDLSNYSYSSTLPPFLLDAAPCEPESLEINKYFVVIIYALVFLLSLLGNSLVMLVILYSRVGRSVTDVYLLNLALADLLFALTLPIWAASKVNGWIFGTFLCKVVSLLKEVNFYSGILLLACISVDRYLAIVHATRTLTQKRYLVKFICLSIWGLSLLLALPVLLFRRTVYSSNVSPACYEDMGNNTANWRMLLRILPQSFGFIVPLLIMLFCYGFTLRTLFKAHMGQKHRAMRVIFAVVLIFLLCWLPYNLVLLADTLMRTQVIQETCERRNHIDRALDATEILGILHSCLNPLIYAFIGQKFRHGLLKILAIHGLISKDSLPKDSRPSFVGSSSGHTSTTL
Source text: (§7) The Kd Equation include: (1) i=A450nm/A^max450 nm, then i=Ligand/Ligand^max; (2) 1/(1−i)=(Ligtot/i)/Kd−b, b=fqSrec/Kd.

MIAPaCa2GR = assay: Transwell invasion assay, MIAPaCa2GR; format: cell-based, Human; conditions: Gemcitabine 100 nM
Method: as §5, §6

BxPC-3 xenograft tumor = format: in vivo, BALB/c nude mice
Method: The PDAC xenograft tumor model treated by ONCO P-8, or treated by Gemcitabine with ONCO P-8, or treated by Gemcitabine, or treated by Gemcitabine, or treated PBS respectively. Gemcitabine administrations were about 100 mg/kg subject weight twice per week. ONCO P-8 administrations were about 500 μg/kg subject weight three times per week. […] The survival rate of xenograft model treated by ONCO P-8 or treated by Gemcitabine with ONCO P-8 is about 100%.
To evaluate the effect of ONCO P-8 in vivo, it was used the BxPC-3 model in 4-week old male BALB/c nude mice in the present invention. Mice were inoculated BxPC-3 cells subcutaneously. After 7 days, mice were treated with PBS or ONCO P-8 (500 μg/kg) by i.p injection three times a week. The initiation tumor size was 128.5±47.8 mm^3 in first treatment.

[4] = test system: CSC markers (NANOG, OCT4, SOX2, ALDHA1, BMI-1, KLF4, Nestin) in BxPC3GR-derived spheroids; assay: RT-PCR of CSC markers in BxPC3GR-derived spheroids; format: cell-based, Human; conditions: ONCO P-8 400 ng/ml (47 nM), Gemcitabine 100 nM
Method: FIG. 12A-12G illustrate RT-PCR analysis was performed to determine the effect of ONCO P-8 treatment on the expression levels of NANOG (FIG. 12A), OCT4 (FIG. 12B), SOX2 (FIG. 12C), ALDHA1 (FIG. 12D), BMI-1 (FIG. 12E), KLF4 (FIG. 12F) and Nestin (FIG. 12G) in BxPC3GR-derived spheroids with Gemcitabine. Drug resistance related CSC marker: NANOG, OCT4, SOX2. Cell invasion related CSC marker: ALDHA1, BMI-1. Tumor growth related CSC marker: KLF4, Nestin.
All real-time PCR reactions were performed with specific primers and taqman probes or probes from the Universal Probe Library (Roche Applied Science) in the StepOneTMReal-Time PCR system (Applied Biosystems™). 18 s was used as an internal loading control. The reactions were performed as follows: denaturation for 2 min at 50° C. and 10 min at 95° C., 50 cycles of 95° C. for 15 sec, and 60° C. for 1 min. […] Sequences of all primers used are listed below (F: Forward primer; R: Reverse primer): […]

BxPC-3 = assay: Colony formation assay, BxPC-3; format: cell-based, Human; conditions: IL-8 200 ng/ml, ONCO P-8 400 ng/ml, 2 weeks
Method: Cells were Seeded in a 24-Well Plate at a Density of 1000 Cells Per well, treatment were executed 24 hr after seeding. The treatment included that the cells were treated with IL-8 (200 ng/ml), IL-8 (200 ng/ml) plus ONCO P-8 (400 ng/ml), or ONCO P-8 (400 ng/ml). After 2 weeks, the medium was removed and cells were washed with PBS and stained for 30 min in 0.1% w/v crystal violet (dissolved in methanol; 32675, Fluka® Analytical, USA). Area of colonies were identified by camera and analyzed by ImageJ analysis software. The results were calculated as follows: Colony formation rate (%)=(Treatment area of the colony/Control area of the colony)×100%

CXCR1 = target: T2, CXCR1 (Homo sapiens, UniProt P25024); assay: Indirect ELISA binding assay, CXCR1 complex formation; conditions: versus IL-8
T2 sequence (P25024 1-350): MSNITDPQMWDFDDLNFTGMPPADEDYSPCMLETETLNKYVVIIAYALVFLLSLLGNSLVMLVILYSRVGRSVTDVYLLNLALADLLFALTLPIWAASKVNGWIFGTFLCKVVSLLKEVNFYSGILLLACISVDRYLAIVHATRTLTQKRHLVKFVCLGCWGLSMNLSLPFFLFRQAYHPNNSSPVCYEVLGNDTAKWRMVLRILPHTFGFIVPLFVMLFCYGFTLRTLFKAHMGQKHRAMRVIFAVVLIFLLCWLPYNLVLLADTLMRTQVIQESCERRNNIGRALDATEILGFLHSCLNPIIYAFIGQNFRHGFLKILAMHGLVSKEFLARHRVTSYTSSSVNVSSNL
Source text: as §7

[5] = IL-8 200 ng/mL + ONCO P-8 400 ng/mL versus IL-8 group

Nc1ccn([C@@H]2O[C@H](CO)[C@@H](O)C2(F)F)c(=O)n1 [Gemcitabine]
IC50 (MIAPaCa2GR cells): 8620 nM
proliferation rate (BxPC-3GR [1]): enhanced
IC50 (BxPC-3 cells): 6.13 nM
IC50 (MIAPaCa2 cells): 251 nM
IC50 (BxPC-3GR cells; BxPC-3GR cells, read-out: IC50-value in BxPC-3GR cells): 236 nM
IC50 (BxPC-3GR cells; BxPC-3GR resistant cells, read-out: IC50 (nM) Resistant cells): 236 nM

IL-8: ELR-CXC chemokine CXCL8 (IL-8), ligand of CXCR1 and CXCR2 [reference compound]
migration rate [2]: can enhance the cell migration
invasion rate (BxPC-3GR [3]): can enhance
invasive rate (BxPC-3 cell line): can enhance the cell invasion

B1: ONCO P-8: chemokine receptor antagonistic modified peptide (SEQ ID NO: 1), analogous protein of CXCL8 (IL-8), antagonist of CXCR1 and CXCR2 (protein)
chain: GSKELRCQCIRSYSKPFHPKFIKELRVIPASQFCANTEIIVKLSDGRELCLDPKENWVQRVVEKFLKRAENS
modifications: ONCO P-8
bind to CXCR2 tighter than IL-8 (CXCR2): 3-4 fold
invasion rate in presence of IL-8 (MIAPaCa2GR; [5]): can prevent significantly invasion rate
invasion rate (MIAPaCa2GR; ONCO P-8 400 ng/mL, versus control): decreases invasion rate; also recorded: can inhibit the invasion ability
survival rate / lifespan (BxPC-3 xenograft tumor; BxPC-3 xenograft): improve the survival rate
survival rate (BxPC-3 xenograft tumor; BxPC-3 xenograft, FIG. 13C): about 100%
tumor growth (tumor size) (BxPC-3 xenograft tumor; BxPC-3 xenograft, ONCO P-8 500 μg/kg i.p. three times a week, Gemcitabine 100 mg/kg twice per week): significantly inhibited the tumor growth
body weight of mice (BxPC-3 xenograft tumor; mouse, in vivo, ip): didn't lead to reduce the body weight
expression of CSC properties markers [4]: can reduce the expression of these CSC properties markers
migration rate [2]: can reduce the migration rate; also recorded: can attenuate
colony formation rate (BxPC-3): can neutralize the effect of CXCL8 to reduce the colony formation rate
invasion rate in presence of IL-8 (BxPC-3GR [3]; [5]): can prevent significantly invasion rate; also recorded: can neutralize the effect of CXCL8 to reduce the invasive rate
invasion rate (BxPC-3GR [3]): decreases invasion rate; also recorded: can reduce; also recorded: can inhibit the invasion ability; also recorded: can attenuate
proliferation rate (BxPC-3GR [1]): significantly attenuated; also recorded: inhibited
bind to CXCR1 tighter than IL-8 (CXCR1): 3-4 fold
invasive rate in presence of CXCL8 (BxPC-3 cell line; IL-8 200 ng/ml with ONCO P-8 400 ng/ml): can neutralize the effect of CXCL8 to reduce the invasive rate
invasive rate (BxPC-3 cell line): can reduce the invasive rate
